Test system: CD8+ T cells of healthy HLA-A*02 donors
Assay: In vitro T-cell priming immunogenicity assay with aAPCs loaded with peptide/MHC complexes and anti-CD28 antibody, multimer readout
Assay type: cell-based, human
Settings: HLA class I peptides, Table 10A
Source text: In order to obtain information regarding the immunogenicity of the TUMAPs of the present invention, the inventors performed investigations using an in vitro T-cell priming assay based on repeated stimulations of CD8+ T cells with artificial antigen presenting cells (aAPCs) loaded with peptide/MHC complexes and anti-CD28 antibody.
In order to perform in vitro stimulations by artificial antigen presenting cells loaded with peptide-MHC complex (pMHC) and anti-CD28 antibody, the inventors first isolated CD8+ T cells from fresh HLA-A*02 leukapheresis products via positive selection using CD8 microbeads (Miltenyi Biotec, Bergisch-Gladbach, Germany) of healthy donors obtained from the University clinics Mannheim, Germany, after informed consent.
PBMCs and isolated CD8+ lymphocytes were incubated in T-cell medium (TCM) until use consisting of RPMI-Glutamax (Invitrogen, Karlsruhe, Germany) supplemented with 10% heat inactivated human AB serum (PAN-Biotech, Aidenbach, Germany), 100 U/ml Penicillin/100 μg/ml Streptomycin (Cambrex, Cologne, Germany), 1 mM sodium pyruvate (CC Pro, Oberdorla, Germany), 20 μg/ml Gentamycin (Cambrex). 2.5 ng/ml IL-7 (PromoCell, Heidelberg, Germany) and 10 U/ml IL-2 (Novartis Pharma, Nürnberg, Germany) were also added to the TCM at this step.
Generation of pMHC/anti-CD28 coated beads, T-cell stimulations and readout was performed in a highly defined in vitro system using four different pMHC molecules per stimulation condition and 8 different pMHC molecules per readout condition.
The purified co-stimulatory mouse IgG2a anti human CD28 Ab 9.3 (Jung et al., 1987) was chemically biotinylated using Sulfo-N-hydroxysuccinimidobiotin as recommended by the manufacturer (Perbio, Bonn, Germany). Beads used were 5.6 μm diameter streptavidin coated polystyrene particles (Bangs Laboratories, Ill., USA).
800.000 beads/200 μl were coated in 96-well plates in the presence of 4×12.5 ng different biotin-pMHC, washed and 600 ng biotin anti-CD28 were added subsequently in a volume of 200 μl. Stimulations were initiated in 96-well plates by co-incubating […] CD8+ T cells with 2×10^5 washed coated beads in 200 μl TCM supplemented with 5 ng/ml IL-12 (PromoCell) for 3 days at 37° C. Half of the medium was then exchanged by fresh TCM supplemented with 80 U/ml IL-2 and incubating was continued for 4 days at 37° C. This stimulation cycle was performed for a total of three times. For the pMHC multimer readout using 8 different pMHC molecules per condition, a two-dimensional combinatorial coding approach was used as previously described (Andersen et al., 2012) with minor modifications encompassing coupling to 5 different fluorochromes. Finally, multimeric analyses were performed by staining the cells with Live/dead near IR dye (Invitrogen, Karlsruhe, Germany), CD8-FITC antibody clone SK1 (BD, Heidelberg, Germany) and fluorescent pMHC multimers. For analysis, a BD LSRII SORP cytometer equipped with appropriate lasers and filters was used. Peptide specific cells were calculated as percentage of total CD8+ cells. Evaluation of multimeric analysis was done using the FlowJo software (Tree Star, Oreg., USA). In vitro priming of specific multimer+ CD8+ lymphocytes was detected by comparing to negative control stimulations.

| Substance | wells (in vitro immunogenicity) |
| --- | --- |
| 33 (ILGTEDLIVEV; listed as Homo sapiens) [compound 33] | ++ (20%-49% = ++) |
| 34 (LLWGNLPEI; listed as Homo sapiens) [compound 34] | ++ (20%-49% = ++) |
| 35 (GLIDEVMVL; listed as Homo sapiens) [compound 35] | ++ (20%-49% = ++) |
| 36 (ILVDWLVQV; listed as Homo sapiens) [compound 36] | ++ (20%-49% = ++) |
| 38 (KIQEILTQV; listed as Homo sapiens) [compound 38] | ++ (20%-49% = ++) |

Same assay, conditions: HLA-A*02 restricted peptides, percentage of positive wells among evaluable, Table 10B

| Substance | Wells positive [%] |
| --- | --- |
| 6 (LLLPLLPPLSPS; listed as Homo sapiens) [compound 6] | + (<20% = +) |
| 13 (VLPRAFTYV; listed as Homo sapiens) [compound 13] | ++++ (> = 70% = ++++) |
| 16 (AVMTDLPVI; listed as Homo sapiens) [compound 16] | + (<20% = +) |
| 25 (NLSETASTMAL; listed as Homo sapiens) [compound 25] | ++ (20%-49% = ++) |

Target: HLA-A*02:01 (Homo sapiens, UniProt P04439, D140Y/D185E/D98H/E176V/E277Q/G131W/G231S/I119V/I121R/I166T/I218V/L300P/L318F/N151K/N90K/P208A/P217A/Q86G/Q94H/R138H/R169H/T345S)
Assay: MHC binding assay (UV-ligand exchange, β2m ELISA)
Settings: peptide exchange yield
Source text: Candidate peptides for T cell based therapies according to the present invention were further tested for their MHC binding capacity (affinity). The individual peptide-MHC complexes were produced by UV-ligand exchange, where a UV-sensitive peptide is cleaved upon UV-irradiation, and exchanged with the peptide of interest as analyzed. Only peptide candidates that can effectively bind and stabilize the peptide-receptive MHC molecules prevent dissociation of the MHC complexes. To determine the yield of the exchange reaction, an ELISA was performed based on the detection of the light chain (β2m) of stabilized MHC complexes. The assay was performed as generally described in Rodenko et al. (Rodenko et al., 2006).
96 well MAXISorp plates (NUNC) were coated over night with 2 ug/ml streptavidin in PBS at room temperature, washed 4× and blocked for 1 h at 37° C. in 2% BSA containing blocking buffer. Refolded HLA-A*02:01/MLA-001 monomers served as standards, covering the range of 15-500 ng/ml. Peptide-MHC monomers of the UV-exchange reaction were diluted 100-fold in blocking buffer. Samples were incubated for 1 h at 37° C., washed four times, incubated with 2 ug/ml HRP conjugated anti-β2 m for 1 h at 37° C., washed again and detected with TMB solution that is stopped with […]. Absorption was measured at 450 nm. Candidate peptides that show a high exchange yield (preferably higher than 50%, most preferred higher than 75%) are generally preferred for a generation and production of antibodies or fragments thereof, and/or T cell receptors or fragments thereof, as they show sufficient avidity to the MHC molecules and prevent dissociation of the MHC complexes.

| Substance | Peptide exchange (MHC class I binding score) |
| --- | --- |
| 2 (AAYPEIVAV; listed as Homo sapiens) [compound 2] | +++ (>50 = +++) |
| 6 (LLLPLLPPLSPS; listed as Homo sapiens) [compound 6] | ++++ (>75% = ++++) |
| 13 (VLPRAFTYV; listed as Homo sapiens) [compound 13] | ++++ (>75% = ++++) |
| 14 (YGIEFVVGV; listed as Homo sapiens) [compound 14] | ++++ (>75% = ++++) |
| 15 (SVIDSLPEI; listed as Homo sapiens) [compound 15] | ++++ (>75% = ++++) |
| 16 (AVMTDLPVI; listed as Homo sapiens) [compound 16] | ++++ (>75% = ++++) |
| 17 (VLYDNTQLQL; listed as Homo sapiens) [compound 17] | ++++ (>75% = ++++) |
| 21 (IAFPTSISV; listed as Homo sapiens) [compound 21] | +++ (>50 = +++) |
| 22 (SAFGFPVIL; listed as Homo sapiens) [compound 22] | ++ (>20% = ++) |
| 23 (SLLSELLGV; listed as Homo sapiens) [compound 23] | ++++ (>75% = ++++) |
| 26 (TAQTLVRIL; listed as Homo sapiens) [compound 26] | + (>10% = +) |

Now from value to substance:

| Peptide exchange (MHC class I binding score) | Substance |
| --- | --- |
| +++ (>50 = +++) | 1 (YAAEIASAL; listed as Homo sapiens) [compound 1] |
| +++ (>50 = +++) | 3 (EMDSTVITV; listed as Homo sapiens) [compound 3] |
| ++++ (>75% = ++++) | 4 (FLLEAQNYL; listed as Homo sapiens) [compound 4] |
| ++++ (>75% = ++++) | 5 (GLIDEVMVLL; listed as Homo sapiens) [compound 5] |
| ++++ (>75% = ++++) | 7 (LLLSDPDKVTI; listed as Homo sapiens) [compound 7] |
| + (>10% = +) | 8 (LSASLVRIL; listed as Homo sapiens) [compound 8] |
| ++++ (>75% = ++++) | 9 (RLAKLTAAV; listed as Homo sapiens) [compound 9] |
| ++ (>20% = ++) | 10 (SAFPFPVTVSL; listed as Homo sapiens) [compound 10] |
| ++++ (>75% = ++++) | 11 (SIIDFTVTM; listed as Homo sapiens) [compound 11] |
| + (>10% = +) | 12 (TILPGNLQSW; listed as Homo sapiens) [compound 12] |
| +++ (>50 = +++) | 18 (SLSPDLSQV; listed as Homo sapiens) [compound 18] |
| ++ (>20% = ++) | 19 (TAYPQVVVV; listed as Homo sapiens) [compound 19] |
| ++++ (>75% = ++++) | 20 (VLQDELPQL; listed as Homo sapiens) [compound 20] |
| + (>10% = +) | 24 (ISAPLVKTL; listed as Homo sapiens) [compound 24] |
| ++++ (>75% = ++++) | 25 (NLSETASTMAL; listed as Homo sapiens) [compound 25] |
| +++ (>50 = +++) | 27 (ALAEQVQKA; listed as Homo sapiens) [compound 27] |
| + (>10% = +) | 28 (YASGSSASL; listed as Homo sapiens) [compound 28] |
| ++++ (>75% = ++++) | 29 (FASEVSNVL; listed as Homo sapiens) [compound 29] |
| +++ (>50 = +++) | 30 (FASGLIHRV; listed as Homo sapiens) [compound 30] |
| ++++ (>75% = ++++) | 31 (IAIPFLIKL; listed as Homo sapiens) [compound 31] |
| ++++ (>75% = ++++) | 32 (YVISQVFEI; listed as Homo sapiens) [compound 32] |

From US10377811B2, “Peptides, combination of peptides as targets and for use in immunotherapy against gallbladder cancer and cholangiocarcinoma and other cancers” (Immatics biotechnologies GmbH, priority 2016, dated 2019)
